According to US20230304022, “CHIMERIC POLYPEPTIDES HAVING TARGETED BINDING SPECIFICITY” (The Scripps Research Institute, published 2023):

B1: A-Avr15 site (dsDNA)
DNA 1: AATAAACCCCCTCCAA
DNA 2: TTGGAGGGGGTTTATT
B2: G-Avr15 site (dsDNA)
DNA 1: GATAAACCCCCTCCAA
DNA 2: TTGGAGGGGGTTTATC

Key:
Avr15 TALE NTD PTR = Avr15 TALE NTD PTR (synthetic, UniProt Q56830 SEQ:151-834, K230P,Q231T,W232R (KQW to PTR))
Avr15 TALE NTD PKD = Avr15 TALE NTD PKD (synthetic, UniProt Q56830 SEQ:151-834, K230P,Q231K,W232D (KQW to PKD))
Avr15 TALE NTD KRSNG = Avr15 TALE NTD KRSNG (synthetic, UniProt Q56830 SEQ:151-834, Q231R,W232S,S233N (KQWSG to KRSNG))
Avr15 TALE NTD SRC = Avr15 TALE NTD SRC (synthetic, UniProt Q56830 SEQ:151-834, K230S,Q231R,W232C (KQW to SRC))
Avr15 TALE NTD SSR = Avr15 TALE NTD SSR (synthetic, UniProt Q56830 SEQ:151-834, K230S,Q231S,W232R (KQW to SSR))

Binder	binding result (Avr15 TALE NTD PTR)	binding result (Avr15 TALE NTD PKD)	binding result (Avr15 TALE NTD KRSNG)	binding result (Avr15 TALE NTD SRC)	binding result (Avr15 TALE NTD SSR)
B1	binds	binds			
B2			binds	binds	binds
